Assay results taken from patent publication US20230071321A1 (VIB VZW, published 2023).
Where two headings read alike, the source gives them in different places. Blank lines part the entries; values can stand above or below the binder they belong to.

Key:
[1] = target: T1, hCXCR4Rho1D4 (full-length human CXCR4 receptor with C-terminal Rho1D4 tag) (human, UniProt P61072 6-352 (Pan troglodytes entry)); assay: cell-based or functional assay
[2] = target: T1, hCXCR4Rho1D4 (full-length human CXCR4 …); assay: cell-based or functional assay; remark: listed apart in the source
[3] = target: T1, hCXCR4Rho1D4 (full-length human CXCR4 …); assay: control Nanobody co-expressed with hCXCR4Rho1D4 in P. pastoris; receptor level read by anti-Rho1D4 immunoblot
From the text: Equal amounts of total membrane protein (determined by a BCA assay) of induced P. pastoris GS115 clones, expressing only the human CXCR4 receptor, or in combination with a anti-hCXCR4 Nanobody (NbCA4142), or in combination with the negative control Nanobody (NbCA4910), were run on a 12% SDS-PAGE gel and blotted on a nitrocellulose membrane. The blot was developed with a primary mouse anti-Rho1D4 monoclonal antibody and a secondary Dylight (800 nm) goat anti-mouse IgG on an LI-COR odyssey system. For the hCXCR4-specific Nb co-expressing clone we detect more of the anti-Rho1D4 immunoreactive membrane protein band compared to the GS115hCXCR4 clone without Nb co-expression. […] Exact quantification has been calculated by the Odyssey software by measuring relative fluorescent signals (Table 4). It can, thus, be concluded that the increase in receptor expression can be attributed to the Nanobody-specific interaction with the receptor.
Protein samples were analyzed by SDS-poly-acrylamide gel electrophoresis, according to the Laemmli (Laemmli et al., 1970, Nature, 227:680) or the Tricine method (Schagger et al., 2006, Nat. Protoc. 1:16-22). Before loading on gel, the samples were mixed with 5×Laemmli (60 mM Tris-HCl pH 6,8; 2% SDS, 10% glycerol, 5% β-ME; 0.01% bromophenol blue) and heated for 10 minutes at 95° C. (only the ECM samples, not the membrane protein preparations). […]

T1 sequence (P61072 other isoform, or with tags, fused parts or gaps limits assumed): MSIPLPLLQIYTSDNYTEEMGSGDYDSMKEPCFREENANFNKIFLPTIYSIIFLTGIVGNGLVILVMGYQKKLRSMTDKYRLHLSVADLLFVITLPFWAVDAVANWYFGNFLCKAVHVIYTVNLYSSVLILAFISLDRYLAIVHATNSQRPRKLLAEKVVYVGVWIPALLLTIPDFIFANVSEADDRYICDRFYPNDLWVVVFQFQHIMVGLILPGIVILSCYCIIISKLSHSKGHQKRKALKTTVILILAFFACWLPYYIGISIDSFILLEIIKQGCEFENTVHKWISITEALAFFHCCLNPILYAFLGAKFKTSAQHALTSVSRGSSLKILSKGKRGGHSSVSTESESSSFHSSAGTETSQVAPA

- Factor improvement (relative hCXCR4 expression, anti-Rho1D4 immunoblot fluorescence) [1]: 1.3 fold
B1: Nanobody CA4500 (VHH)
VHH: QVQLQESGGGLVQAGGSLRLSCAASGSTSGIIAMGWYRQAPGKQRELVARISSGSSTNYADSVKGRFTVSRDNAKNTVYLQMNSLKPEDTAVYYCNAVRRGYRNDYNSWGQGTQVTVSS

- Factor improvement (relative hCXCR4 expression, anti-Rho1D4 immunoblot fluorescence), clone 1 [2]: 0.4 fold
- Factor improvement (relative hCXCR4 expression, anti-Rho1D4 immunoblot fluorescence), clone 2 [2]: 1.1 fold
- Factor improvement (relative hCXCR4 expression, anti-Rho1D4 immunoblot fluorescence), clone 3 [2]: 1.2 fold
- binding result [3]: no binding
B3: Nanobody CA4910 (VHH)
VHH: QVQLVESGGGLVQPGGSLRLSCAASGSFRSIVSMAWYRQAPGKQRELVASSNSGGSTNYADSVKGRFTISRDNAKNTVYLQMNSLKPEDTAVYWCNVQNRLPGFDAFSGRSIAETYWGQGTQVTVSS
notes: It was co-expressed in P. pastoris as a control; also called NbCA4910; Nb4910

- Factor improvement (relative hCXCR4 expression, anti-Rho1D4 immunoblot fluorescence) [1]: 3 fold
B5: Nanobody CA4143 (VHH)
VHH: QVQLQESGGGLVQPGGSLRLSCAASGFTFSSYAMSWVRQAPGKGLEWVSTINSGGRSANYADSVKGRLTISRDNAKNTLHLQMNSLKPEDTALYYCARPRSVSRNYVPLGYDYLGQGTQVTVSS

Further lines, the binder ahead of its results:

B2: Nanobody CA4142 (VHH)
VHH: QVQLQESGGGLVRTGGSLRLSCAGSGSFFSINPMGWYRQAPGQQRELVATITGSGSTNYADSVKGRFTISRDNAKNTLYLQMNSLKPEDTAVYYCNAGYFDRIGRRYDRWGQGTQVTVSS
- Factor improvement (relative hCXCR4 expression, anti-Rho1D4 immunoblot fluorescence) [2]: 1.9 fold
- Factor improvement (relative hCXCR4 expression, anti-Rho1D4 immunoblot fluorescence) [1]: 2.6 fold

B4: Nanobody CA4140 (VHH)
VHH: QVQLQESGGGLVQPGGSLRLSCAASGSIFSINAMGWYRQAPGKQRELVAAITSGGSTNYADSVKGRFTISRDNAENTVYLQMNNLKPEDTAVYSCNAEGTSGSSRYRRRYEYWGKGTQVTVSS
- Factor improvement (relative hCXCR4 expression, anti-Rho1D4 immunoblot fluorescence) [1]: 2.8 fold
